According to article PMC3112237 (Journal of virology, 2011):

Key:
[1] = target: the molecule itself; assay: SDS-PAGE of unboiled samples, Coomassie stain
[2] = target: the molecule itself; assay: SDS-PAGE of unboiled samples with Western blot

Protein	stoichiometry N [1]	stoichiometry N [2]
Ad3-K/S/Kn (His tag, K-coil dimerization domain, flexible linker, one shaft motif, Ad3 fiber knob) (designed binder, biotinylated (sites not given) only where it was immobilised on streptavidin (Fig. 5A)) KVSALKEKVSALKEKVSALKEKVSALKEKVSALKEGSGGGSGGGSGGGSNSIALKNNTLWTGPKPEANCIIEYGKQNPDSKLTLILVKNGGIVNGYVTLMGASDYVNTLFKNKNVSINVELYFDATGHILPDSSSLKTDLELKYKQTADFSARGFMPSTTAYPFVLPNAGTHNENYIFGQCYYKASDGALFPLEVTVMLNKRLPDSRTSYVMTFLWSLNAGLAPETTQATLITSPFTFSYIREDD	3	–
Ad3-E/S/Kn (His tag, E-coil dimerization domain, flexible linker, one shaft motif, Ad3 fiber knob) (designed binder) EVSALEKEVSALEKEVSALEKEVSALEKEVSALEKGSGGGSGGGSGGGSNSIALKNNTLWTGPKPEANCIIEYGKQNPDSKLTLILVKNGGIVNGYVTLMGASDYVNTLFKNKNVSINVELYFDATGHILPDSSSLKTDLELKYKQTADFSARGFMPSTTAYPFVLPNAGTHNENYIFGQCYYKASDGALFPLEVTVMLNKRLPDSRTSYVMTFLWSLNAGLAPETTQATLITSPFTFSYIREDD	3	–
recombinant Ad3 fiber knob S6/Kn (six shaft motifs and the knob domain) (domain or fragment) GVLSLKCVNPLTTASGSLQLKVGSGLTVDTTDGSLEENIKVNTPLTKSNHSINLPIGNGLQIEQNKLCSKLGNGLTFDSSNSIALKNNTLWTGPKPEANCIIEYGKQNPDSKLTLILVKNGGIVNGYVTLMGASDYVNTLFKNKNVSINVELYFDATGHILPDSSSLKTDLELKYKQTADFSARGFMPSTTAYPFVLPNAGTHNENYIFGQCYYKASDGALFPLEVTVMLNKRLPDSRTSYVMTFLWSLNAGLAPETTQATLITSPFTFSYIREDD	–	3
recombinant Ad3 fiber knob S3/Kn (three shaft motifs and the knob domain) (domain or fragment) HSINLPIGNGLQIEQNKLCSKLGNGLTFDSSNSIALKNNTLWTGPKPEANCIIEYGKQNPDSKLTLILVKNGGIVNGYVTLMGASDYVNTLFKNKNVSINVELYFDATGHILPDSSSLKTDLELKYKQTADFSARGFMPSTTAYPFVLPNAGTHNENYIFGQCYYKASDGALFPLEVTVMLNKRLPDSRTSYVMTFLWSLNAGLAPETTQATLITSPFTFSYIREDD	–	3
recombinant Ad3 fiber knob S/Kn (one shaft motif and the knob domain) (domain or fragment) NSIALKNNTLWTGPKPEANCIIEYGKQNPDSKLTLILVKNGGIVNGYVTLMGASDYVNTLFKNKNVSINVELYFDATGHILPDSSSLKTDLELKYKQTADFSARGFMPSTTAYPFVLPNAGTHNENYIFGQCYYKASDGALFPLEVTVMLNKRLPDSRTSYVMTFLWSLNAGLAPETTQATLITSPFTFSYIREDD	–	3
recombinant Ad3 fiber knob S5/Kn (five shaft motifs and the knob domain) (domain or fragment) GSLQLKVGSGLTVDTTDGSLEENIKVNTPLTKSNHSINLPIGNGLQIEQNKLCSKLGNGLTFDSSNSIALKNNTLWTGPKPEANCIIEYGKQNPDSKLTLILVKNGGIVNGYVTLMGASDYVNTLFKNKNVSINVELYFDATGHILPDSSSLKTDLELKYKQTADFSARGFMPSTTAYPFVLPNAGTHNENYIFGQCYYKASDGALFPLEVTVMLNKRLPDSRTSYVMTFLWSLNAGLAPETTQATLITSPFTFSYIREDD	–	3
recombinant Ad3 fiber knob S2/Kn (two shaft motifs and the knob domain) (domain or fragment) NKLCSKLGNGLTFDSSNSIALKNNTLWTGPKPEANCIIEYGKQNPDSKLTLILVKNGGIVNGYVTLMGASDYVNTLFKNKNVSINVELYFDATGHILPDSSSLKTDLELKYKQTADFSARGFMPSTTAYPFVLPNAGTHNENYIFGQCYYKASDGALFPLEVTVMLNKRLPDSRTSYVMTFLWSLNAGLAPETTQATLITSPFTFSYIREDD	–	3
recombinant Ad3 fiber knob S4/Kn (four shaft motifs and the knob domain) (domain or fragment) LEENIKVNTPLTKSNHSINLPIGNGLQIEQNKLCSKLGNGLTFDSSNSIALKNNTLWTGPKPEANCIIEYGKQNPDSKLTLILVKNGGIVNGYVTLMGASDYVNTLFKNKNVSINVELYFDATGHILPDSSSLKTDLELKYKQTADFSARGFMPSTTAYPFVLPNAGTHNENYIFGQCYYKASDGALFPLEVTVMLNKRLPDSRTSYVMTFLWSLNAGLAPETTQATLITSPFTFSYIREDD	–	3
